Columns and labels:
Assay in all cases: purified protein
Conditions in all cases: air oxygen
purified protein [1] = substrate: COc1ccccc1O
purified protein [2] = substrate: CCn1c(=NN=c2sc3cc(S(=O)(=O)O)ccc3n2CC)sc2cc(S(=O)(=O)O)ccc21; assay type: biochemical, Coprinus comatus
purified protein [3] = substrate: COc1cc(C=NN=Cc2cc(OC)c(O)c(OC)c2)cc(OC)c1O; assay type: biochemical, Coprinus comatus
purified protein [4] = substrate: Cc1cccc(C)c1O; assay type: biochemical, Coprinus comatus
[5] = pH 5.0, optimal temperature 50 °C, 50.0 °C
[6] = pH 3.0, optimal temperature 65 °C
[7] = pH 5.0 (optimum elsewhere given as 5.5), optimal temperature 60 °C
[8] = pH 5.5 (optimum elsewhere given as 5.0), optimal temperature 60 °C
[9] = pH 6.0, optimal temperature 60 °C, 60.0 °C
[10] = pH 3.0, optimal temperature 60 °C
[11] = pH 6.0 (optimum elsewhere given as 5.5), optimal temperature 65 °C
[12] = pH 5.5 (optimum elsewhere given as 6.0), optimal temperature 65 °C

B1: Lac3 (Coprinus comatus) (protein)
chain: SVLIPHSTLTLTNQLIAPDGFQRSAIVVNGEHPGPLIQATKGDGFMVNVVNQLTDPTMQRAASVHWHGLSQRGTNWADGATGVNQCPISPNHSFEYTFTGGDSQAGTFWYHSHYFLQYCDGLRGPLVIYDPEDPWKNLYDVDDESTVLTLADWYHTPFPSIPGFPLPESTLINGKGRYPDGPNVDLSIVNVEKGKRYRFRLVSLACETSYLFGIDGHQLQVIETDGQNTVPVVVDKLRIFAGQRYSFVLDANQNIDNYWVRSLPANGMPKLVAGYEGGINSAILRYRGAPISDPQTNDNQNLILLEEAKLVPAQDPFPPGNPTAGGADFNVTLNFVLDVDLASGEPQFKLNDKVYRPPSVPILLKILSGARRPEELLPEGNLFSVPRDKVIEVTVPGGIAAGPHPMHLHGHTFSVVKSAGKNNQPNYLTPVRRDVTATSQEVDDYITIRFTTDNPGPWLLHCHLNKHHESGMVVVFVADVDSVAEENPVPDAWNDLCPIYDALSDAEKEVKIVSSLPMPV
notes: mature form (547-aa precursor, 28-aa putative signal peptide removed); pPICZalphaB-10AALac3; secreted from Pichia pastoris KM71H; glycosylated, about 75 kDa (55 kDa after endoH)
Which Km (purified protein [1]; [5]) does the source give for B1 here?
The Km was 1114 µM.

What about the kcat (purified protein [1]; [5]) of the same protein?
Its kcat is 0.418 s⁻¹.

And the kcat/Km (purified protein [1]; [5])?
Its kcat/Km is 375 M⁻¹ s⁻¹.

What about the Km (purified protein [2]; [6]) of the same protein?
The Km was 136 µM.

And the kcat (purified protein [2]; [6])?
The kcat was 3.48 s⁻¹.

And the kcat/Km (purified protein [2]; [6])?
Its kcat/Km is 25600 M⁻¹ s⁻¹.

And the Km (purified protein [3]; [7])?
The Km was 87 µM.

And the kcat (purified protein [3]; [7])?
Its kcat is 32 s⁻¹.

And the kcat/Km (purified protein [3]; [7])?
The kcat/Km was 367000 M⁻¹ s⁻¹.

What about the Km (purified protein [4]; [8]) of the same protein?
Its Km is 1374 µM.

And the kcat (purified protein [4]; [8])?
Its kcat is 0.307 s⁻¹.

And the kcat/Km (purified protein [4]; [8])?
Its kcat/Km is 223 M⁻¹ s⁻¹.

B2: Lac4 (Coprinus comatus) (protein)
chain: LSVGPRATLTLTNDVVAPDGFERSAIVVNGGHPGPLIQANKGDAYTINVVNRLTDSTMQRVSSIHWHGLSQRGTNWADGGSGVNQCPISPNHSFEYQFSGRKDQAGTFWYHSHYSIQYCDGLRGPLVIYDPNDPFKNLYDVDDESTVITLTDWYHTPFPSVTGPPTSDSTLINGKGRYPGGPNVDLSVINVERGKRYRFRLVALTCENSHLFGIDGHQLLVIETGGESTVPTLVDKITLLAGQRYSFVLDANQAVDNYWIRGLPRSGVPSLKAGYEGGLNSAILRYQGAPITEPQTTDNENAALLDEAQLVPTRNPFAPGRPTSGGADFNVTVNFELDLTTGSPHFKLNGKIYQPPTVPILLQIISGARKAEELLPEGNIYFVPRNKVVEVTVPGGIPGAPHPMHLHGHHFSVVKSAGKHNQVNYLTPVRRDTTASPVEVDDNTTIRFTTDSPGPWIFHCHFNKHQSIGMAVVFVADIDEVAEKNPTPDAWNDLCPIYQSLSESETVVEIVPMVKH
notes: mature form (532-aa precursor, 16-aa putative signal peptide removed); pPICZalphaB-10AALac4; secreted from Pichia pastoris KM71H; glycosylated, about 70 kDa (52 kDa after endoH)
Which Km (purified protein [1]; [9]) does the source give for B2 here?
Its Km is 455 µM.

What about the kcat (purified protein [1]; [9]) of the same protein?
The kcat was 0.196 s⁻¹.

And the kcat/Km (purified protein [1]; [9])?
Its kcat/Km is 503 M⁻¹ s⁻¹.

And the Km (purified protein [2]; [10])?
The Km was 205 µM.

And the kcat (purified protein [2]; [10])?
Its kcat is 1.47 s⁻¹.

What about the kcat/Km (purified protein [2]; [10]) of the same protein?
Its kcat/Km is 7170 M⁻¹ s⁻¹.

What about the Km (purified protein [3]; [11]) of the same protein?
Its Km is 204 µM.

And the kcat (purified protein [3]; [11])?
Its kcat is 44.7 s⁻¹.

And the kcat/Km (purified protein [3]; [11])?
Its kcat/Km is 220000 M⁻¹ s⁻¹.

And the Km (purified protein [4]; [12])?
The Km was 7131 µM.

What about the kcat (purified protein [4]; [12]) of the same protein?
Its kcat is 1.47 s⁻¹.

What about the kcat/Km (purified protein [4]; [12]) of the same protein?
Its kcat/Km is 206 M⁻¹ s⁻¹.
